Columns and labels:
[1] = system: human pancreatic cancer cell line MIA-PaCa2; test: Western blot/ELISA of caspase 3 cleavage, LC3 and p62; assay type: cell-based; details: 72 hours
Protocol: (§1) The human pancreatic cancer cell line MIA-PaCa2 was treated in vitro and in vivo with pegylated arginine deiminase (ADI-PEG) alone or in the presence of ChQ. Cell death was measured by propidium iodide (PI)-FACS to determine sub-G1 DNA content, and apoptosis was evaluated by Annexin V-PI flow cytometry. Cleavage of caspase 3 was evaluated by western blots and ELISA. Autophagy was measured by evaluating the expression levels of LC3 and […] p62 (p62) by western blots and ELISA.
(§2) In order to determine if ADI induces apoptosis and autophagy in a caspase dependent manner, cells were incubated with either ADI-PEG or a combination of ADI-PEG and ZVAD-fmk, a pan-caspase inhibitor.
(§3) The levels of p62, LC3B-I, and LC3B-II were measured by western blot analysis in order to examine autophagic flux.

[2] = system: human pancreatic cancer cell line MIA-PaCa2; test: Cell death by PI-FACS (sub-G1 DNA content) and Annexin V-PI flow cytometry; assay type: cell-based
Protocol: as §1, §2, §3
In order to examine whether ChQ alters the amount of apoptotic or non-apoptotic cell death when used in combination with ADI, cells were incubated with ADI-PEG alone or a combination of ADI-PEG and ChQ.

B1: ADI-PEG: ADI covalently modified with PEG (with or without a linking group) (protein, listed as Mycoplasma hominis)
chain: MSVFDSKFNGIHVYSEIGELETVLVHEPGREIDYITPARLDELLFSAILESHDARKEHQSFVKIMKDRGINVVELTDLVAETYDLASKAAKEEFIETFLEETVPVLTEANKEAVRAFLLSKPTHEMVEFMMSGITKYELGVESENELIVDPMPNLYFTRDPFASVGNGVTIHFMRYIVRRRETLFARFVFRNHPKLVKTPWYYDPAMKMSIEGGDVFIYNNETLVVGVSERTDLDTITLLAKNIKANKEVEFKRIVAINVPKWTNLMHLDTWLTMLDKNKFLYSPIANDVFKFWDYDLVNGGAEPQPQLNGLPLDKLLASIINKEPVLIPIGGAGATEMEIARETNFDGTNYLAIKPGLVIGYDRNEKTNAALKAAGITVLPFHGNQLSLGMGNARCMSMPLSRKDVKW
modifications: PEGylated
[1]; dose dependent
  LC3B conjugation with PE: LC3B conjugation with PE
  caspase cleavage: induces caspase cleavage
[1]; ADI-PEG 0.3 μg/mL, western blot
  apoptosis as measured by caspase 3 cleavage: induction of apoptosis
[2]; 0.3 μg/mL, 72 hours, vs PBS
  Annexin V depolarization: induced Annexin V depolarization
[2]; ADI-PEG alone
  number of cells in sub-G0/G1: increased the number of cells in sub-G0/G1

Reference: patent publication US9333268B2, “Methods of treatment with arginine deiminase” (Polaris Group, priority 2012, dated 2016)
